Source: the supplement of paper PMC5998384

Experiments:
HeLa Kyoto [1] = assay: solubility change mitosis vs G1/S (difference of NP-40 vs SDS log2 ratios) (log2 ratio difference); higher = more soluble in mitosis
HeLa Kyoto [2] = assay: melting temperature (median over replicates), in situ; higher = more thermally stable
HeLa Kyoto [3] = assay: thermal stability score vs G1/S (z-score of summed log2 fold changes over temperatures); higher = more thermally stable than in G1/S
HeLa Kyoto [4] = assay: solubility in G1/S (NP-40 vs SDS abundance) (log2 ratio); higher = more soluble; settings: cell cycle stage: G1/S
[5] = cell cycle stage: early G1 (4.5 h after nocodazole release)
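Throughout, for melting temperature (median over replicates), in situ: HeLa Kyoto cells synchronized by double thymidine or nocodazole block, proteins quantified by TMT10plex mass spectrometry, three independent biological replicates.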
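Throughout, for solubility change mitosis vs G1/S (difference of NP-40 vs SDS log2 ratios): synchronized HeLa Kyoto cells (double thymidine block for G1/S, nocodazole release for mitosis), protein amounts in NP-40 versus SDS lysates quantified by mass spectrometry, three biological replicates.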
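Throughout, for solubility in G1/S (NP-40 vs SDS abundance): HeLa Kyoto cells arrested at G1/S by double thymidine block, proteins quantified by TMT10plex mass spectrometry in mild NP-40 versus SDS extracts, three biological replicates.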
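Throughout, for thermal stability score vs G1/S (z-score of summed log2 fold changes over temperatures): synchronized HeLa Kyoto cells, proteins quantified by TMT10plex mass spectrometry, three biological replicates, mitosis taken 0.5 h after nocodazole release, G1/S directly after double thymidine block.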

Sequence	solubility change mitosis (log2) (HeLa Kyoto [1])	melting temperature (HeLa Kyoto [2]; cell cycle stage: G1/S) [°C]	melting temperature (HeLa Kyoto [2]; cell cycle stage: mitosis) [°C]	thermal stability score (HeLa Kyoto [3]; [5])	thermal stability score (HeLa Kyoto [3]; cell cycle stage: mitosis)	solubility in G1/S (log2) (HeLa Kyoto [4])
MSQTAMSETYDFLFKFLVIGNAGTGKSCLLHQFIEKKFKDDSNHTIGVEFGSKIINVGGKYVKLQIWDTAGQERFRSVTRSYYRGAAGALLVYDITSRETYNALTNWLTDARMLASQNIVIILCGNKKDLDADREVTFLEASRFAQENELMFLETSALTGENVEEAFVQCARKILNKIESGELDPERMGSGIQYGDAALRQLRSPRRAQAPNAQECGC [RAB4A]	-0.0763	59.5	57.6	-3.03	-3.68	0.0401
MSRCAQAAEVAATVPGAGVGNVGLRPPMVPRQASFFPPPVPNPFVQQTQIGSARRVQIVLLGIILLPIRVLLVALILLLAWPFAAISTVCCPEKLTHPITGWRRKITQTALKFLGRAMFFSMGFIVAVKGKIASPLEAPVFVAAPHSTFFDGIACVVAGLPSMVSRNENAQVPLIGRLLRAVQPVLVSRVDPDSRKNTINEIIKRTTSGGEWPQILVFPEGTCTNRSCLITFKPGAFIPGVPVQPVLLRYPNKLDTVTWTWQGYTFIQLCMLTFCQLFTKVEVEFMPVQVPNDEEKNDPVLFANKVRNLMAEALGIPVTDHTYEDCRLMISAGQLTLPMEAGLVEFTKISRKLKLDWDGVRKHLDEYASIASSSKGGRIGIEEFAKYLKLPVSDVLRQLFALFDRNHDGSIDFREYVIGLAVLCNPSNTEEIIQVAFKLFDVDEDGYITEEEFSTILQASLGVPDLDVSGLFKEIAQGDSISYEEFKSFALKHPEYAKIFTTYLDLQTCHVFSLPKEVQTTPSTASNKVSPEKHEESTSDKKDD [LPCAT2]	-0.289	51.3	52.5	1.39	1.37	-0.00721
MSRFVQDLSKAMSQDGASQFQEVIRQELELSVKKELEKILTTASSHEFEHTKKDLDGFRKLFHRFLQEKGPSVDWGKIQRPPEDSIQPYEKIKARGLPDNISSVLNKLVVVKLNGGLGTSMGCKGPKSLIGVRNENTFLDLTVQQIEHLNKTYNTDVPLVLMNSFNTDEDTKKILQKYNHCRVKIYTFNQSRYPRINKESLLPVAKDVSYSGENTEAWYPPGHGDIYASFYNSGLLDTFIGEGKEYIFVSNIDNLGATVDLYILNHLMNPPNGKRCEFVMEVTNKTRADVKGGTLTQYEGKLRLVEIAQVPKAHVDEFKSVSKFKIFNTNNLWISLAAVKRLQEQNAIDMEIIVNAKTLDGGLNVIQLETAVGAAIKSFENSLGINVPRSRFLPVKTTSDLLLVMSNLYSLNAGSLTMSEKREFPTVPLVKLGSSFTKVQDYLRRFESIPDMLELDHLTVSGDVTFGKNVSLKGTVIIIANHGDRIDIPPGAVLENKIVSGNLRILDH [UGP2]	-0.072	55.9	56	0.682	0.921	0.158
MSRLGALGGARAGLGLLLGTAAGLGFLCLLYSQRWKRTQRHGRSQSLPNSLDYTQTSDPGRHVMLLRAVPGGAGDASVLPSLPREGQEKVLDRLDFVLTSLVALRREVEELRSSLRGLAGEIVGEVRCHMEENQRVARRRRFPFVRERSDSTGSSSVYFTASSGATFTDAESEGGYTTANAESDNERDSDKESEDGEDEVSCETVKMGRKDSLDLEEEAASGASSALEAGGSSGLEDVLPLLQQADELHRGDEQGKREGFQLLLNNKLVYGSRQDFLWRLARAYSDMCELTEEVSEKKSYALDGKEEAEAALEKGDESADCHLWYAVLCGQLAEHESIQRRIQSGFSFKEHVDKAIALQPENPMAHFLLGRWCYQVSHLSWLEKKTATALLESPLSATVEDALQSFLKAEELQPGFSKAGRVYISKCYRELGKNSEARWWMKLALELPDVTKEDLAIQKDLEELEVILRD [RMDN3]	-0.102	51.1	50.8	0.252	-0.0237	-0.0304
